The supplement of paper PMC9876800

Test system: peptide library, one residue held at a place counted from the S/T acceptor
Experiment: relative phosphorylation of the sub-library (ratio to the mean residue at this position); higher = residue favoured
Outline: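 Relative sub-library phosphorylation, a ratio to the mean residue at that position, was obtained by phosphorimaging and densitometry of spots on streptavidin membranes. Before capture, purified recombinant kinases were incubated for 90 min under kinase-specific conditions with 50 μM biotinylated degenerate peptide sub-libraries and 50 μM ATP spiked with γ-32P-ATP. Each sub-library fixed one residue at one position around a central Ser/Thr.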

Sequence of ALPK1, construct: aa1-474 and aa959-end, human (Q96QP1 1-474, looked up): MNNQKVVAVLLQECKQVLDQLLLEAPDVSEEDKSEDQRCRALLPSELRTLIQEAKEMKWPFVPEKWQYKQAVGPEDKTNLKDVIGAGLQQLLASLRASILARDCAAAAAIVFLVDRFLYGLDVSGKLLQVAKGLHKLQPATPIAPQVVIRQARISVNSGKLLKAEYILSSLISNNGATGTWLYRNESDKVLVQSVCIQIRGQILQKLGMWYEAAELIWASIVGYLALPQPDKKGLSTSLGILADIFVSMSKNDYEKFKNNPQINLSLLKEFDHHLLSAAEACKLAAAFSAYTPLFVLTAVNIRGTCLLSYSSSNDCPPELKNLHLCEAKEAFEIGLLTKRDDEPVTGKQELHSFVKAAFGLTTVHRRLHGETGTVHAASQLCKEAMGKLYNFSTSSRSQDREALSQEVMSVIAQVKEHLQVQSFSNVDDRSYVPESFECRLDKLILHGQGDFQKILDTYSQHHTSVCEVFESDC
Sequence of CDK4, construct: Full length, human (P11802 whole entry, looked up): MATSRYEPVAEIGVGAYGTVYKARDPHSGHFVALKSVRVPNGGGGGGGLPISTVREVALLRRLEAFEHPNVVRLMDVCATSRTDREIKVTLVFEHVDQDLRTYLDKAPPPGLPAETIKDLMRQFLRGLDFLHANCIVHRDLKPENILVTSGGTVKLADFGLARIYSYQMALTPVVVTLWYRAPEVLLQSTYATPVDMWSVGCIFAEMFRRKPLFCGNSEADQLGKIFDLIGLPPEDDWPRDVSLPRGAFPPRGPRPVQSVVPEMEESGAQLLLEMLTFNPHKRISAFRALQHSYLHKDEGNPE
Sequence of TRPM6, construct: aa1699-end, human (Q9BX84 1699-2022, looked up): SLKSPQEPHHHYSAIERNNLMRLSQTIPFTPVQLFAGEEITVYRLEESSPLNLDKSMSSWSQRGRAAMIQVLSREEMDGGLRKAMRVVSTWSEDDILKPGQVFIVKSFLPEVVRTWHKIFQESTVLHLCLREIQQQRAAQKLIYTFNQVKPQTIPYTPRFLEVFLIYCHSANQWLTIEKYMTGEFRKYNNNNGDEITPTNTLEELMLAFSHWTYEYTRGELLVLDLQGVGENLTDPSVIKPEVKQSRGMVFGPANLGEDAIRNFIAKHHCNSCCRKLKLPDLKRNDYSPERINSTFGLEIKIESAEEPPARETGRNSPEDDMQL

PRKDC, construct: Full length, human (from UniProt P78527)
relative phosphorylation
Details | at +1 | at +2 | at +3 | at +4 | at -1 | at -2 | at -3 | at -4 | at -5
A fixed | 0.244 | 1.11 | 0.987 | 0.798 | 1.14 | 1.28 | 1.11 | 0.908 | 1.01
D fixed | 0.156 | 3.46 | 1.28 | 1.49 | 0.887 | 0.607 | 0.595 | 0.795 | 0.728
E fixed | 0.145 | 2.46 | 1.6 | 1.57 | 1.08 | 0.733 | 0.681 | 0.895 | 0.773
F fixed | 1.31 | 0.561 | 1.15 | 1.13 | 1.22 | 1.25 | 1.13 | 1.02 | 1.15
G fixed | 0.222 | 0.753 | 0.712 | 0.971 | 2.01 | 1.28 | 1.11 | 1.35 | 1.13
H fixed | 0.179 | 0.678 | 0.721 | 0.931 | 0.977 | 1.08 | 1.05 | 1.06 | 1.07
I fixed | 0.705 | 0.41 | 0.935 | 0.728 | 0.352 | 0.969 | 1.08 | 1.07 | 1.03
K fixed | 0.166 | 0.556 | 0.627 | 0.625 | 0.345 | 0.776 | 0.796 | 0.961 | 1.2
L fixed | 2.21 | 0.558 | 0.943 | 0.715 | 0.87 | 0.831 | 1 | 0.953 | 0.957
M fixed | 1.25 | 0.688 | 1.27 | 1.09 | 1.07 | 1.06 | 1.16 | 1.02 | 1.06
N fixed | 0.407 | 0.879 | 0.7 | 0.902 | 1.25 | 1.25 | 0.829 | 0.829 | 0.879
P fixed | 0.638 | 1.2 | 0.943 | 0.825 | 0.725 | 0.937 | 1.02 | 0.907 | 0.944
Q fixed | 7.43 | 1 | 0.818 | 0.869 | 1.2 | 0.99 | 0.891 | 0.85 | 0.656
R fixed | 0.362 | 0.725 | 0.623 | 0.88 | 0.686 | 1.13 | 1.12 | 1.17 | 1.21
V fixed | 0.371 | 0.609 | 1.02 | 0.653 | 0.317 | 0.852 | 0.967 | 0.812 | 0.979
W fixed | 0.309 | 0.656 | 1.36 | 1.6 | 0.835 | 0.916 | 1.16 | 1.18 | 1.11
Y fixed | 0.892 | 0.702 | 1.31 | 1.22 | 2.04 | 1.06 | 1.3 | 1.22 | 1.11
pThr fixed | 0.228 | 1.74 | 1.81 | 1.94 | 0.33 | 0.77 | 0.764 | 0.76 | 0.72
pTyr fixed | 0.194 | 0.795 | 1.87 | 1.87 | 0.926 | 0.966 | 0.829 | 0.692 | 0.654

ALPK1, construct: aa1-474 and aa959-end, human (from UniProt Q96QP1)
relative phosphorylation
Details | at +1 | at +2 | at +3 | at +4 | at -1 | at -2 | at -3 | at -4 | at -5
A fixed | 0.392 | 0.063 | 0.503 | 1.02 | 0.957 | 1.29 | 0.868 | 0.65 | 0.43
D fixed | 0.704 | 0.889 | 1.31 | 1.21 | 2.26 | 1.87 | 2.74 | 2 | 1.61
E fixed | 3.35 | 2.03 | 1.22 | 1.27 | 1.9 | 0.573 | 1.83 | 1.77 | 1.83
F fixed | 0.991 | 1.09 | 1.36 | 1.05 | 0.862 | 0.626 | 0.757 | 1.02 | 0.92
G fixed | 0.404 | 0.704 | 0.365 | 0.933 | 0.798 | 0.731 | 0.687 | 0.798 | 0.812
H fixed | 1.15 | 1.07 | 1 | 1.37 | 0.779 | 0.466 | 1.21 | 1.24 | 0.763
I fixed | 1.27 | 1.14 | 0.752 | 0.378 | 1.16 | 1.02 | 0.608 | 0.848 | 1.02
K fixed | 0.774 | 1.49 | 1.08 | 1.09 | 1.13 | 0.599 | 0.905 | 1.31 | 0.94
L fixed | 0.474 | 1.11 | 1.09 | 0.718 | 0.704 | 1.29 | 0.392 | 0.763 | 0.67
M fixed | 1.63 | 1.38 | 1.49 | 0.671 | 0.979 | 1.13 | 0.9 | 0.651 | 1.14
N fixed | 0.75 | 1.19 | 0.97 | 1.36 | 0.572 | 0.718 | 1.11 | 0.874 | 1.08
P fixed | 0.39 | 1.01 | 0.781 | 1.16 | 0.805 | 1.54 | 0.952 | 1.02 | 0.971
Q fixed | 1.01 | 0.617 | 0.852 | 0.914 | 0.933 | 1.31 | 0.826 | 0.758 | 1.16
R fixed | 1.23 | 0.649 | 0.935 | 0.774 | 0.731 | 0.797 | 1.02 | 1.09 | 1.28
V fixed | 0.557 | 1.08 | 1.06 | 0.914 | 0.569 | 1.09 | 0.694 | 0.547 | 0.996
W fixed | 0.811 | 1.01 | 1.06 | 1.1 | 1.04 | 0.771 | 0.557 | 0.92 | 0.613
Y fixed | 1.11 | 0.478 | 1.17 | 1.06 | 0.826 | 1.18 | 0.944 | 0.741 | 0.762
pThr fixed | 0.485 | 1.34 | 1.32 | 1.94 | 1.71 | 1.9 | 2.27 | 1.42 | 1.5
pTyr fixed | 1.74 | 1.33 | 1.73 | 2.97 | 9.01 | 0.489 | 1.53 | 1.85 | 1.83

CDK4, construct: Full length, human (from UniProt P11802)
relative phosphorylation
Details | at +1 | at +2 | at +3 | at +4 | at -1 | at -2 | at -3 | at -4 | at -5
A fixed | 0.244 | 0.682 | 0.688 | 0.766 | 0.896 | 0.85 | 1.04 | 1 | 1.02
D fixed | 0.173 | 0.416 | 0.335 | 0.58 | 0.421 | 0.228 | 0.387 | 0.667 | 0.799
E fixed | 0.133 | 0.337 | 0.246 | 0.526 | 0.504 | 0.298 | 0.59 | 0.844 | 0.796
F fixed | 0.237 | 0.736 | 0.778 | 0.851 | 0.96 | 1.06 | 0.741 | 0.852 | 0.797
G fixed | 0.746 | 0.88 | 0.82 | 1.11 | 1.03 | 0.596 | 1.4 | 1.18 | 1.28
H fixed | 0.266 | 1.32 | 1.05 | 1.38 | 1.02 | 1.04 | 1.13 | 1.09 | 1.16
I fixed | 0.278 | 1.16 | 0.428 | 0.855 | 0.531 | 1.01 | 0.915 | 0.838 | 0.917
K fixed | 0.29 | 1.55 | 1.86 | 1.2 | 1.29 | 0.798 | 1.21 | 1.23 | 1.4
L fixed | 0.364 | 0.967 | 0.412 | 0.587 | 1.28 | 1.41 | 0.874 | 0.808 | 0.752
M fixed | 0.267 | 1.03 | 0.566 | 0.909 | 1.46 | 1.28 | 0.796 | 0.827 | 0.813
N fixed | 0.258 | 1.27 | 0.739 | 0.976 | 0.731 | 0.948 | 0.856 | 1.16 | 1.08
P fixed | 12.4 | 0.481 | 0.92 | 0.848 | 0.94 | 2.52 | 1.14 | 1.08 | 1.14
Q fixed | 0.275 | 0.789 | 0.652 | 0.801 | 1.27 | 0.76 | 0.704 | 0.832 | 0.822
R fixed | 0.324 | 2.59 | 4.48 | 2.2 | 1.9 | 1.39 | 2.5 | 1.52 | 1.6
V fixed | 0.302 | 1.01 | 0.417 | 0.636 | 0.624 | 0.891 | 0.889 | 0.658 | 0.68
W fixed | 0.239 | 0.624 | 1.54 | 1.42 | 0.996 | 0.88 | 0.87 | 1.28 | 0.782
Y fixed | 0.222 | 1.16 | 1.07 | 1.36 | 1.13 | 1.05 | 0.957 | 1.13 | 1.15
pThr fixed | 0.323 | 0.406 | 0.361 | 0.422 | 0.237 | 0.382 | 0.592 | 0.644 | 0.77
pTyr fixed | 0.482 | 0.391 | 0.503 | 0.432 | 0.357 | 0.356 | 0.592 | 0.544 | 0.934

TRPM6, construct: aa1699-end, human (from UniProt Q9BX84)
relative phosphorylation
Details | at +1 | at +2 | at +3 | at +4 | at -1 | at -2 | at -3 | at -4 | at -5
A fixed | 0.996 | 1.48 | 2.44 | 0.962 | 0.767 | 0.976 | 0.898 | 1.12 | 1.29
D fixed | 0.396 | 0.307 | 0.4 | 0.983 | 0.669 | 0.615 | 0.898 | 1 | 1.12
E fixed | 0.732 | 0.319 | 0.381 | 0.993 | 0.577 | 0.678 | 0.928 | 1.11 | 1.22
F fixed | 0.824 | 1.31 | 0.776 | 0.816 | 0.504 | 1.03 | 0.829 | 0.991 | 1.02
G fixed | 0.509 | 0.788 | 1.09 | 1.33 | 0.421 | 1.36 | 1.06 | 1.35 | 1.43
H fixed | 1.08 | 0.995 | 0.992 | 1.01 | 1.24 | 0.768 | 1.08 | 0.911 | 1.11
I fixed | 1.19 | 0.651 | 0.394 | 0.755 | 0.46 | 0.519 | 0.825 | 0.819 | 0.69
K fixed | 2.27 | 0.855 | 2.27 | 1.27 | 4.26 | 0.678 | 1.18 | 0.887 | 1.12
L fixed | 0.909 | 0.92 | 0.633 | 0.705 | 0.673 | 0.772 | 0.928 | 0.81 | 0.696
M fixed | 0.816 | 1.38 | 0.708 | 0.88 | 0.576 | 1.17 | 0.838 | 0.914 | 0.767
N fixed | 0.685 | 0.66 | 1.04 | 0.945 | 1.08 | 0.731 | 1.34 | 0.931 | 1
P fixed | 0.376 | 2.29 | 0.963 | 1.3 | 0.964 | 1.74 | 1.5 | 1.35 | 0.904
Q fixed | 1.36 | 0.956 | 0.827 | 1.27 | 0.892 | 0.773 | 1.14 | 1.08 | 1.07
R fixed | 1.96 | 0.942 | 1.83 | 1.02 | 2.16 | 0.609 | 0.963 | 0.901 | 0.928
V fixed | 0.903 | 0.562 | 0.539 | 0.805 | 0.51 | 0.609 | 0.737 | 0.789 | 0.747
W fixed | 0.873 | 1.28 | 0.679 | 1.01 | 0.464 | 3.23 | 1.09 | 1.16 | 0.996
Y fixed | 1.12 | 1.3 | 1.04 | 0.948 | 0.78 | 0.746 | 0.774 | 0.875 | 0.884
pThr fixed | 0.646 | 0.552 | 0.592 | 1.04 | 0.7 | 0.837 | 1.1 | 1.2 | 1.21
pTyr fixed | 1.15 | 0.701 | 0.772 | 0.915 | 0.729 | 0.729 | 0.959 | 1.02 | 0.79
